# From patent US20240116985A1 (published 2024)
# Starred links: 1 amine or outer side, 2 acyl side, 3 side chain; linkers in the order of their positions; H or OH if unused. Positions of bridges follow the written chain, without caps; N, C: chain ends. Non-standard residues stand in square brackets, D forms with d. Primed or numbered codes have the meaning given here. *: point of attachment. PyrS2″ = (S)-3-amino-1-((pent-4-en-1-yloxy)carbonyl)pyrrolidine-3-carboxylic acid (stapling residue), C=CCCCOC(=O)N1CC[C@@](N[*:1])(C(=O)[*:2])C1; B5(4) = 2,2-bis(4-pentenyl)glycine = 2-amino-2-(pent-4-en-1-yl)hept-6-enoic acid (stitching residue), C=CCCCC(CCCC=C)(N[*:1])C(=O)[*:2]; PyrS2 = (S)-3-amino-1-((pent-4-en-1-yloxy)carbonyl)pyrrolidine-3-carboxylic acid, C=CCCCOC(=O)N1CC[C@@](N[*:1])(C(=O)[*:2])C1; PyrS1 = (S)-3-amino-1-((but-3-en-1-yloxy)carbonyl)pyrrolidine-3-carboxylic acid, C=CCCOC(=O)N1CC[C@@](N[*:1])(C(=O)[*:2])C1; MorphAsn = (S)-2-amino-4-morpholino-4-oxobutanoic acid, O=C(C[C@H](N[*:1])C(=O)[*:2])N1CCOCC1; B5(3) = 2,2-bis(4-pentenyl)glycine (stitching residue), C=CCCCC(CCCC=C)(N[*:1])C(=O)[*:2]; Me2NCBz = 4-((dimethylamino)methyl)benzoyl on Lys side chain, CN(C)Cc1ccc(C(=O)*)cc1; B5 = 2-amino-2-(pent-4-en-1-yl)hept-6-enoic acid, C=CCCCC(CCCC=C)(N[*:1])C(=O)[*:2]; B6 = 2-amino-2-(hex-5-en-1-yl)oct-7-enoic acid, C=CCCCCC(CCCCC=C)(N[*:1])C(=O)[*:2]; Me2Asn = listed as N4-methyl-L-asparagine, CNC(=O)C[C@H](N[*:1])C(=O)[*:2]; MeAsn = N4-methyl-L-asparagine, CNC(=O)C[C@H](N[*:1])C(=O)[*:2]; MeGln = N5-methyl-L-glutamine, CNC(=O)CC[C@H](N[*:1])C(=O)[*:2]; Phe(3-COOH) = N[C@@H](Cc1cccc(C(=O)O)c1)C(=O)O; Phe(2-CF3) = N[C@@H](Cc1ccccc1C(F)(F)F)C(=O)O; Bta = N[C@@H](Cc1csc2ccccc12)C(=O)O; αAllylPro = C=CC[C@@]1(C(=O)O)CCCN1; tBuAla = CC(C)(C)C[C@H](N)C(=O)O; 3Thi = N[C@@H](Cc1ccsc1)C(=O)O; Cha = N[C@@H](CC1CCCCC1)C(=O)O; PyrS2(4) = not defined here; 4ClBztA = not defined here; Ac5c = NC1(C(=O)O)CCCC1; Ac3c = NC1(C(=O)O)CC1; Aib = CC(C)(N)C(=O)O
# T1: B-cat-Halo (beta-catenin HaloTag fusion expressed in HEK293 cells) (UniProt P35222 1-781)
# T1 sequence (looked up): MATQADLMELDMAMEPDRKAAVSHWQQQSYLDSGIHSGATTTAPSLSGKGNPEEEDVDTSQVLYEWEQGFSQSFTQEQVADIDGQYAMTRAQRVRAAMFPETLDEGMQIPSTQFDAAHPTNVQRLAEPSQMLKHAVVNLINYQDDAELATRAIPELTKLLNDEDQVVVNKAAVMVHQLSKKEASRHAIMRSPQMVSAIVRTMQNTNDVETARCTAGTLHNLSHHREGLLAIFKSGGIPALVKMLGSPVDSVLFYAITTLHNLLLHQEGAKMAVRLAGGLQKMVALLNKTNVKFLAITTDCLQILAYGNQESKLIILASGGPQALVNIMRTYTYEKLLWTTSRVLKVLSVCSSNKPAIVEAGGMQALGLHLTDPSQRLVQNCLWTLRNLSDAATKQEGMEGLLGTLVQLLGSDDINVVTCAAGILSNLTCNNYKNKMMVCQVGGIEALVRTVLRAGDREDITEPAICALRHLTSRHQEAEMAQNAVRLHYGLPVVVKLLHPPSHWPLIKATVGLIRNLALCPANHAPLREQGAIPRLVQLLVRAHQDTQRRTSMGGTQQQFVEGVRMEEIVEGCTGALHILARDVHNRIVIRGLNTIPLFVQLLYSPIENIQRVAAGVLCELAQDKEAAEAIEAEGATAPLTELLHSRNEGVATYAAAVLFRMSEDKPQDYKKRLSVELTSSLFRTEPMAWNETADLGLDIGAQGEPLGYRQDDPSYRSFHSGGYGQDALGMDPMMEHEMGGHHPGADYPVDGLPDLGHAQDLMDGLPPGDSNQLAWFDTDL
# T2: B-cat-Halo (UniProt P35222 1-781, HaloTag NanoBRET 618 Ligand bound to the HaloTag in the assay)
# T2 sequence (looked up): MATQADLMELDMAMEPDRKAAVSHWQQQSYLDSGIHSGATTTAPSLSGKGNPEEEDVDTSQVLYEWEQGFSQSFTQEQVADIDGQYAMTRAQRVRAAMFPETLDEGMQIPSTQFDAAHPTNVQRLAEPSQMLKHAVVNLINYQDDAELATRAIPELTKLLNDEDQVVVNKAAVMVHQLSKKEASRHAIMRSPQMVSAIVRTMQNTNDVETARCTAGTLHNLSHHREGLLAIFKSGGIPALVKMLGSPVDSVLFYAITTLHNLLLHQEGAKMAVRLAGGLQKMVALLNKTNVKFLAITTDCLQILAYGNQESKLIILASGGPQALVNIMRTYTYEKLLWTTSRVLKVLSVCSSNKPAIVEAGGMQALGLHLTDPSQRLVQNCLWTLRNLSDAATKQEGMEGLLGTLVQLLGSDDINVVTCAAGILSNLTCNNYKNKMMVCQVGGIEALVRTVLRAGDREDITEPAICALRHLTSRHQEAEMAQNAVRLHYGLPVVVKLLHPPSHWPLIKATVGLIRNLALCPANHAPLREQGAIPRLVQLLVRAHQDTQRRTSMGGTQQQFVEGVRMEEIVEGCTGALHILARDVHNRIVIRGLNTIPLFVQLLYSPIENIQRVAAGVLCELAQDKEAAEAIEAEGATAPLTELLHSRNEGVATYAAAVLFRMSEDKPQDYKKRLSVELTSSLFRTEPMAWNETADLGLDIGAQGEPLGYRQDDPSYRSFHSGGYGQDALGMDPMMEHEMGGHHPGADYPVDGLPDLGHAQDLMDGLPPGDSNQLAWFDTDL
# Molecular target: T1, B-cat-Halo (beta-catenin HaloTag fusion …)
# Assay: cell-based or functional assay
row,NanoBRET Abs IC50,Binder
1,> 20 µM,"Ac-[αAllylPro]D[tBuAla][B5]NT[Aib]AF[MeAsn][PyrS2][3Thi][Bta]N-NH2 (staple 1-4, 4-11) [I-2497]"
2,> 20 µM,"Ac-[αAllylPro]N[Cha][B5]DQ[MeGln]AFL[PyrS2]F[Bta][MorphAsn]-NH2 (staple 1-4, 4-11) [I-2502]"
3,3.6 µM,"Ac-[αAllylPro]D[tBuAla][B5(4)]D[Phe(3-COOH)]AAFL[PyrS2″][Phe(2-CF3)][7FBztA]Q-NH2 (staple 1-4, 4-11) [I-2488]"
4,7.4 µM,"Ac-[αAllylPro]D[tBuAla][B5(4)]D[Phe(3-COOH)]QAFL[PyrS2″][Phe(2-CF3)][7FBztA]A-NH2 (staple 1-4, 4-11) [I-2489]"
5,> 20 µM,"Ac-[αAllylPro]D[tBuAla][B5]NT[Aib]AFN[PyrS2][3Thi][Bta][Me2Asn]-NH2 (staple 1-4, 4-11) [I-2494]"

# More lines, now with the values behind:
row,Binder,NanoBRET Abs IC50
1,"Ac-[αAllylPro]D[tBuAla][B5]NT[Aib]AFN[PyrS2][3Thi][Bta][MeAsn]-NH2 (staple 1-4, 4-11) [I-2495]",> 20 µM
2,"Ac-[αAllylPro]D[tBuAla][B5(4)]NT[Ac5c]AFN[PyrS2″][3Thi][Bta]Q-NH2 (staple 1-4, 4-11) [I-2493]",> 20 µM
3,"Ac-[αAllylPro]D[tBuAla][B5(4)]NT[Ac3c]AFN[PyrS2″][3Thi][Bta]Q-NH2 (staple 1-4, 4-11) [I-2492]",> 20 µM
4,"Ac-[αAllylPro]D[tBuAla][B5(4)]D[Phe(3-COOH)]AAFL[PyrS2″][Phe(2-CF3)][4ClBztA]Q-NH2 (staple 1-4, 4-11; reading uncertain) [I-2490]",6.4 µM
5,"Ac-[αAllylPro]N[Cha][B5]DQQAFL[PyrS2]F[Bta][MorphAsn]-NH2 (staple 1-4, 4-11) [I-2504]",> 20 µM
6,"Ac-[αAllylPro]D[tBuAla][B6]D[Phe(3-COOH)]AAFL[PyrS1][Phe(2-CF3)][Bta]Q-NH2 (staple 1-4, 4-11) [I-2508]",27.3 µM
7,"Ac-[αAllylPro]N[Cha][B5]DQ[Me2Gln]AFL[PyrS2]F[Bta][MorphAsn]-NH2 (staple 1-4, 4-11) [I-2501]",> 20 µM
8,"Ac-[αAllylPro]D[tBuAla][B5]NT[Aib]AF[Me2Asn][PyrS2][3Thi][Bta]N-NH2 (staple 1-4, 4-11) [I-2496]",> 20 µM

# Molecular target: T2, B-cat-Halo
# Assay: cell-based or functional assay
row,NanoBRET Abs IC50,Binder
1,15.5 µM,"Ac-[αAllylPro]D[tBuAla][B5(3)]DDAAFN[PyrS2(4)][3Thi][Bta]QK(2Napc)-NH2 (staple 1-4, 4-11; reading uncertain; also: printed as Ac-PL3-Asp-Npg-B5-Asp-Asp-Ala-Ala-Phe-Asn-PyrS2-3Thi-BztA-Gln-[2Napc]Lys-NH2) [I-915]"
2,29.8 µM,"Ac-[αAllylPro]D[tBuAla][B5(3)]DDAAFN[PyrS2″][3Thi][Bta]QK(Me2NCBz)-NH2 (staple 1-4, 4-11) [I-910]"
3,22.9 µM,"Ac-[αAllylPro]D[tBuAla][B5(3)]DDAAFN[PyrS2″][3Thi][Bta]QK(mPEG2)-NH2 (staple 1-4, 4-11; not fully specified; printed as Ac-PL3-Asp-Npg-B5-Asp-Asp-Ala-Ala-Phe-Asn-PyrS2-3Thi-BztA-Gln-[mPEG2]Lys-NH2) [I-911]"
